This note sets out measurements from paper PMC4104028 (2014).

To fix the notation:
B1: GFP-WIPI2b [not stated] / FLAG-Atg16L1 full-length (FL) [mouse] (parent complex)
chain 1: MNLASQSGEAGAGQLLFANFNQDNTSLAVGSKSGYKFFSLSSVDKLEQIYECTDTEDVCIVERLFSSSLVAIVSLKAPRKLKVCHFKKGTEICNYSYSNTILAVKLNRQRLIVCLEESLYIHNIRDMKVLHTIRETPPNPAGLCALSINNDNCYLAYPGSATIGEVQVFDTINLRAANMIPAHDSPLAALAFDASGTKLATASEKGTVIRVFSIPEGQKLFEFRRGVKRCVSICSLAFSMDGMFLSASSNTETVHIFKLETVKEKPPEEPTTWTGYFGKVLMASTSYLPSQVTEMFNQGRAFATVRLPFCGHKNICSLATIQKIPRLLVGAADGYLYMYNLDPQEGGECALMKQHRLDGSLETTNEILDSASHDCPLVTQTYGAAAGKGTYVPSSPTRLAYTDDLGAVGGACLEDEASALRLDEDSEHPPMILRTD
chain 2: MSSGLRAADFPRWKRHIAEELRRRDRLQRQAFEEIILQYTKLLEKSDLHSVLTQKLQAEKHDMPNRHEISPGHDGAWNDSQLQEMAQLRIKHQEELTELHKKRGELAQLVIDLNNQMQQKDKEIQMNEAKISEYLQTISDLETNCLDLRTKLQDLEVANQTLKDEYDALQITFTALEEKLRKTTEENQELVTRWMAEKAQEANRLNAENEKDSRRRQARLQKELAEAAKEPLPVEQDDDIEVIVDETSDHTEETSPVRAVSRAATKRLSQPAGGLLDSITNIFGLSESPLLGHHSSDAARRRSVSSIPVPQDIMDTHPASGKDVRVPTTASYVFDAHDGEVNAVQFSPGSRLLATGGMDRRVKLWEAFGDKCEFKGSLSGSNAGITSIEFDSAGAYLLAASNDFASRIWTVDDYRLRHTLTGHSGKVLSAKFLLDNARIVSGSHDRTLKLWDLRSKVCIKTVFAGSSCNDIVCTEQCVMSGHFDKKIRFWDIRSESVVREMELLGKITALDLNPERTELLSCSRDDLLKVIDLRTNAVKQTFSAPGFKCGSDWTRVVFSPDGSYVAAGSAEGSLYVWSVLTGKVEKVLSKQHSSSINAVAWAPSGLHVVSVDKGSRAVLWAQP
B2: FLAG-Atg16L1 full-length (FL) [mouse] / GFP-WIPI2b [not stated] (parent complex)
chain 1: B1 chain 2
chain 2: B1 chain 1
B3: FLAG-Atg16L1 full-length (FL) [mouse] / endogenous FIP200 (HEK293A) [human (endogenous in HEK293A)] (parent complex)
chain 1: B1 chain 2
chain 2: MKLYVFLVNTGTTLTFDTELTVQTVADLKHAIQSKYKIAIQHQVLVVNGGECMAADRRVCTYSAGTDTNPIFLFNKEMILCDRPPAIPKTTFSTENDMEIKVEESLMMPAVFHTVASRTQLALEMYEVAKKLCSFCEGLVHDEHLQHQGWAAIMANLEDCSNSYQKLLFKFESIYSNYLQSIEDIKLKLTHLGTAVSVMAKIPLLECLTRHSYRECLGRLDSLPEHEDSEKAEMKRSTELVLSPDMPRTTNESLLTSFPKSVEHVSPDTADAESGKEIRESCQSTVHQQDETTIDTKDGDLPFFNVSLLDWINVQDRPNDVESLVRKCFDSMSRLDPRIIRPFIAECRQTIAKLDNQNMKAIKGLEDRLYALDQMIASCGRLVNEQKELAQGFLANQKRAENLKDASVLPDLCLSHANQLMIMLQNHRKLLDIKQKCTTAKQELANNLHVRLKWCCFVMLHADQDGEKLQALLRLVIELLERVKIVEALSTVPQMYCLAVVEVVRRKMFIKHYREWAGALVKDGKRLYEAEKSKRESFGKLFRKSFLRNRLFRGLDSWPPSFCTQKPRKFDCELPDISLKDLQFLQSFCPSEVQPFLRVPLLCDFEPLHQHVLALHNLVKAAQSLDEMSQTITDLLSEQKASVSQTSPQSASSPRMESTAGITTTTSPRTPPPLTVQDPLCPAVCPLEELSPDSIDAHTFDFETIPHPNIEQTIHQVSLDLDSLAESPESDFMSAVNEFVIEENLSSPNPISDPQSPEMMVESLYSSVINAIDSRRMQDTNVCGKEDFGDHTSLNVQLERCRVVAQDSHFSIQTIKEDLCHFRTFVQKEQCDFSNSLKCTAVEIRNIIEKVKCSLEITLKEKHQKELLSLKNEYEGKLDGLIKETEENENKIKKLKGELVCLEEVLQNKDNEFALVKHEKEAVICLQNEKDQKLLEMENIMHSQNCEIKELKQSREIVLEDLKKLHVENDEKLQLLRAELQSLEQSHLKELEDTLQVRHIQEFEKVMTDHRVSLEELKKENQQIINQIQESHAEIIQEKEKQLQELKLKVSDLSDTRCKLEVELALKEAETDEIKILLEESRAQQKETLKSLLEQETENLRTEISKLNQKIQDNNENYQVGLAELRTLMTIEKDQCISELISRHEEESNILKAELNKVTSLHNQAFEIEKNLKEQIIELQSKLDSELSALERQKDEKITQQEEKYEAIIQNLEKDRQKLVSSQEQDREQLIQKLNCEKDEAIQTALKEFKLEREVVEKELLEKVKHLENQIAKSPAIDSTRGDSSSLVAELQEKLQEEKAKFLEQLEEQEKRKNEEMQNVRTSLIAEQQTNFNTVLTREKMRKENIINDLSDKLKSTMQQQERDKDLIESLSEDRARLLEEKKKLEEEVSKLRSSSFVPSPYVATAPELYGACAPELPGESDRSAVETADEGRVDSAMETSMMSVQENIHMLSEEKQRIMLLERTLQLKEEENKRLNQRLMSQSMSSVSSRHSEKIAIRDFQVGDLVLIILDERHDNYVLFTVSPTLYFLHSESLPALDLKPGEGASGASRRPWVLGKVMEKEYCQAKKAQNRFKVPLGTKFYRVKAVSWNKKV
B4: GFP-WIPI2b [not stated] / FLAG-Atg16L1 full-length (FL) [mouse] (parent complex)
chain 1: B1 chain 1
chain 2: B1 chain 2

One test covers variants of B1. Put plainly: GFP-Trap co-immunoprecipitation from mixed lysates, immunoblot quantification; parent: 2.5; read off a plot. In general terms: A western blot detects proteins with antibodies after separation by electrophoresis.
Regarding chain 2 E226R, chain 2 E230R, the response was approximately 0.02.
Regarding chain 2 E226R, the response is approximately 0.33.
Same read-out and setting: the result for chain 2 E230R reads approximately 0.62.

The next test covers variants of B2. Put plainly: GFP-Trap co-immunoprecipitation from mixed lysates, immunoblot quantification; parent: 1; read off a plot.
Consider chain 1 E208R, for which the ratio to parent was approximately 0.67.
Turning to chain 1 D239R, the ratio to parent was approximately 0.8.
As for chain 1 E230R, the ratio to parent is approximately 0.02.
The same measure, in the same setting: next, chain 1 E226R: approximately 0.02; chain 1 D238R: approximately 1.3.
As for chain 1 D237R, the ratio to parent is approximately 1.7.
Still for that read-out and setting: the result for chain 1 D212R reads approximately 0.63; that for chain 1 E241R, approximately 1.1.
Same read-out and setting: the result for chain 1 E235R reads approximately 1.2.

In a further test the parent is B3. Put plainly: FLAG immunoprecipitation, immunoblot quantification; parent: 1; read off a plot.
With chain 1 E208R, the ratio to parent was approximately 1.3.
On the same count and under the same terms, next, chain 1 E226R: approximately 2.1.
Regarding chain 1 D237R, the ratio to parent was approximately 0.45.
For the variant chain 1 E235R, the ratio to parent is approximately 0.7.
Regarding chain 1 E241R, the ratio to parent was approximately 0.25.
Same read-out and setting: next, chain 1 E230R: approximately 2.9.
Still for that read-out and setting: next, chain 1 D212R: approximately 1.2.
In the case of chain 1 D238R, the ratio to parent was approximately 0.42.
The same measure, in the same setting: next, chain 1 D239R: approximately 0.3.

The variants in the next test derive from B4. Kind of test: GFP-Trap co-immunoprecipitation from mixed lysates, immunoblot quantification; parent: 2.5; read off a plot.
Turning to chain 1 R125E, the response was approximately 1.6.
For chain 1 R108E, chain 1 R125E, the response was approximately 0.03.
Take chain 1 R108E: the response is approximately 0.04.
